The assay addresses Fc-FGF21 from E. coli (UniProt Q9NSA1). Briefly: BLI. (In general: BLI is a label-free optical method that tracks binding on a fibre tip over time.)

For “Human KLB (from UniProt Q86Z14 1-996) (receptor)”, the Kd – broadly, the constant that tells how readily two partners part at equilibrium – was found to be 10.1 nM.

For the origin of these results see paper PMC11985657.
